In patent publication US20220332827A1 (WUXI BIOLOGICS IRELAND, published 2022):

Tests used:
[1] = target: human PD-L1 protein (soluble, ELISA antigen and SPR analyte) (human) (UniProt Q9NZQ7); assay: ELISA, scFv; design: unit not given here
[2] = target: cynomolgus monkey PD-L1 protein (soluble) (cynomolgus monkey) (UniProt G7PSE7); assay: ELISA, scFv; design: unit not given here
[3] = target: mouse PD-L1 protein (soluble) (mouse) (UniProt Q9EP73); assay: ELISA, scFv; design: unit not given here
Sequence of mouse PD-L1 protein (soluble) (mouse) (Q9EP73 19-238 limits assumed): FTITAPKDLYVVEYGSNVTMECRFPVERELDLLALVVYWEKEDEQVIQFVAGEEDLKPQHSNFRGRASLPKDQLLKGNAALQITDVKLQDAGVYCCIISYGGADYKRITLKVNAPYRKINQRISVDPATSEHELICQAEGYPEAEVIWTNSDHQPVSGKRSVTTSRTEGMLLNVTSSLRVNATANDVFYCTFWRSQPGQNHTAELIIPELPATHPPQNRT

[4] = target: T1, human PD-L1 protein (soluble, ELISA antigen and SPR analyte) (human, UniProt Q9NZQ7 19-238); assay: SPR
T1 construct: biotinylated in the capture ELISA; also called PD-L1 (human)
T1 sequence (Q9NZQ7 19-238 limits assumed): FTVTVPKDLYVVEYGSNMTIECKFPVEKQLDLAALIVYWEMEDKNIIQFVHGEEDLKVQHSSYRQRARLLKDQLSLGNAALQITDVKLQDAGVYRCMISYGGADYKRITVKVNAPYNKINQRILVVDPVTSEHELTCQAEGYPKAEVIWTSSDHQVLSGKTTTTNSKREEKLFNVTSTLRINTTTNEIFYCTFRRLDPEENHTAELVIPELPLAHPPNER

[5] = target: T2, cynomolgus PD-L1 on the cell surface (cynomolgus, UniProt G7PSE7 19-290); assay: FACS on cells expressing cynomolgus PD-L1, goat anti-human IgG Fc FITC
T2 construct: also called cell surface cynomolgus PD-L1
T2 sequence (G7PSE7 entry or part of it limits assumed): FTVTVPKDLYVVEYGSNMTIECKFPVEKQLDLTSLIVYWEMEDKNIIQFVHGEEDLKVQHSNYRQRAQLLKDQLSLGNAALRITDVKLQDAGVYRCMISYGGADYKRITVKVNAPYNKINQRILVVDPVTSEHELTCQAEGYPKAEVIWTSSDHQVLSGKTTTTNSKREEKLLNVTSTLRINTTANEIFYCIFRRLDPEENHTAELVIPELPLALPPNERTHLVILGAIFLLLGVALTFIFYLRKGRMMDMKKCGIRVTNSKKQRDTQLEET
Protocol: (§1) Cross-reactivity was measured by FACS. […] Testing antibodies were diluted in wash buffer (1><PBS/1% BSA) and incubated with cells at 4° C. for 1 hour. After washing, the secondary antibody goat anti-human IgG Fc FITC (Jackson ImmunoResearch Lab) was added and incubated at 4° C. in the dark for 1 hour. The cells were then washed once and resuspended in 1><PBS/1% BSA, and analyzed by flow cytometry (BD).

[6] = target: T3, human PD-L1 on the cell surface (CHO-K1 cells expressing human PD-L1) (human, UniProt Q9NZQ7 19-290); assay: FACS competition: antibody against mouse Fc fusion-human PD-1 binding to cells expressing human PD-L1
T3 construct: the positions are those of the human PD-L1 alanine scan; also called cell surface human PD-L1; B7-H1
T3 sequence (Q9NZQ7 19-290 limits assumed): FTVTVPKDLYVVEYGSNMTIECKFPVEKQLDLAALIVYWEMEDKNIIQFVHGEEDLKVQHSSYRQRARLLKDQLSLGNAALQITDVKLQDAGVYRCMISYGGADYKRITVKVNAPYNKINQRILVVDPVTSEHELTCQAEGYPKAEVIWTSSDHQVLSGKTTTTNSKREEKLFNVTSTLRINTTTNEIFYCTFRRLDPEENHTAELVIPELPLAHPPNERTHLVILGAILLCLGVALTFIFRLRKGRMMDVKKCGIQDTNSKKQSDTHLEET

[7] = target: T4, human PD-L2 on the cell surface (human, UniProt Q9BQ51 20-273); assay: FACS on PD-L2+ CHO-K1 cells, goat anti-human IgG Fc FITC (cross-family test)
T4 construct: whole, on cells; also called cell surface human PD-L2
T4 sequence (looked up): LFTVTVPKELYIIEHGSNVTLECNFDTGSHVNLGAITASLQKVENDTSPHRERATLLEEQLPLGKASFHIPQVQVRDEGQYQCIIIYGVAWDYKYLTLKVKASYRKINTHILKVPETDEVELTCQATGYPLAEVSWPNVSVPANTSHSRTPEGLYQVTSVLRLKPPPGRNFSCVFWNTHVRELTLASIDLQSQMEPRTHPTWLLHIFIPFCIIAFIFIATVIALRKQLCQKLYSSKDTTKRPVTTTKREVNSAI
Protocol: Testing antibodies were diluted in wash buffer (1><PBS/1% BSA) and incubated with cells at 4° C. for 1 hour. After washing, the secondary antibody goat anti-human IgG Fc FITC (Jackson ImmunoResearch Lab) was added and incubated at 4° C. in the dark for 1 hour. The cells were then washed once and resuspended in 1><PBS/1% BSA, and analyzed by flow cytometry (BD).

[8] = target: T3, human PD-L1 on the cell surface (CHO-K1 …); assay: FACS epitope binning: antibody mixed with biotinylated WBP315BMK1 on CHO-K1 cells expressing human PD-L1, Streptavidin-PE
Protocol: (§2) CHO-K 1 cells expressing human PD-L1on the cell surface were incubated with the mixture of biotinylated benchmark antibodies and testing antibodies (serially diluted in wash buffer) at 4° C. for 1 hour. The cells were washed and the second antibody Streptavidin-PE were added and incubated for 30 min at 4° C. The cells were then washed once and resuspended in 1><PBS/1% BSA, and analyzed by flow cytometery.

[9] = target: T5, mouse PD-L1 on the cell surface (mouse, UniProt Q9EP73 19-290); assay: FACS competition: antibody against mouse Fc fusion-mouse PD-1 binding to cells expressing mouse PD-L1
T5 construct: whole, on cells; also called cell surface mouse PD-L1
T5 sequence (Q9EP73 19-290): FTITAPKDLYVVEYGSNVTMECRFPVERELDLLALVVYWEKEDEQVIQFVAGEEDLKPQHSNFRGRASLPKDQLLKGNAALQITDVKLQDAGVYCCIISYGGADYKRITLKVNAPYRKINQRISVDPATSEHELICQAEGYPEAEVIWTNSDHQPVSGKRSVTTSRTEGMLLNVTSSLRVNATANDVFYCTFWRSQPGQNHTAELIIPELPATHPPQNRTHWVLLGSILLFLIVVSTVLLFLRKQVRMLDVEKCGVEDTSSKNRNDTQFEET

[10] = target: T6, cynomolgus monkey PD-L1 protein (soluble) (cynomolgus monkey, UniProt G7PSE7 19-238); assay: SPR, antibody captured on Protein A, PD-L1 as analyte
T6 construct: also called cyno PD-L1
T6 sequence (G7PSE7 entry or part of it limits assumed): as the sequence (Q9NZQ7 19-238 limits assumed) above, with A33T, A34S, S62N, R68Q, Q82R, F173L, T185A, T192I, H215L counted along it
Protocol: (§3) Antibodies were characterized for affinity and binding kinetics to PD-L1by SPR assay using ProteOn XPR36 (Bio-Rad). Protein A protein (Sigma) was immobilized to a GLM sensor chip (Bio-Rad) through amine coupling. Purified antibodies were flowed over the sensor chip and captured by the Protein A. The chip was rotated 90° and washed with running buffer (1 ><PBS/0.05% Tween20, Bio-Rad) until the baseline was stable. Five concentrations of human or cynomolgus monkey PD-L1and running buffer were flowed through the sensor chip at a flow rate of 100 μL/min for an association phase of 240s, followed by 600s dissociation. […] The chip was regenerated with pH 1.5 H₃PO₄ after each run. The association and dissociation curve was fit by 1:1 Langmuir binding model using ProteOn software.

[11] = target: T1, human PD-L1 protein (soluble, ELISA …); assay: as above
Protocol: as §3

[12] = target: T3, human PD-L1 on the cell surface (CHO-K1 …); assay: FACS on cells expressing human PD-L1, goat anti-human IgG Fc FITC
Protocol: as §1

[13] = target: T3, human PD-L1 on the cell surface (CHO-K1 …); assay: FACS epitope binning: antibody mixed with biotinylated WBP315BMK6 on CHO-K1 cells expressing human PD-L1, Streptavidin-PE
Protocol: as §2

[14] = target: T5, mouse PD-L1 on the cell surface; assay: FACS on cells expressing mouse PD-L1, goat anti-human IgG Fc FITC
Protocol: as §1

Sequence of cynomolgus monkey PD-L1 protein (soluble) (cynomolgus monkey) (G7PSE7 entry or part of it limits assumed): as the sequence (Q9NZQ7 19-238 limits assumed) above, with A33T, A34S, S62N, R68Q, Q82R, F173L, T185A, T192I, H215L counted along it
Sequence of human PD-L1 protein (soluble, ELISA antigen and SPR analyte) (human) (Q9NZQ7 19-238 limits assumed): as the sequence (Q9NZQ7 19-238 limits assumed) above

B1: W3152-r11.135.5-zAb17-m6 (scFv) (scFv, part only; not given: linker, domain order, tag, V domains shown, not shown: another chain or arm of the molecule; small tags and cut ends)
VH: QVQLQESGPGLVKPSETLSLTCTVSGFSLTENSVSWIRQPPGKGLEWIGAVWSSGSTDYNSALKSRVTISRDTSKNQFSLKLSSVTAADTAVYYCTRSTYSNDFYYYFDYWGQGTMVTVSS
VL: SYELTQPPSVSVSPGQTASITCSGSELPKRYAYWYQQKPGQSIVRVIYKDSERPSGISERFSGSSSGNTATLTISGTQAMDEADYYCSSTYGDRKLPIFGGGTKLTVL
With B1 as the binder, how does the Bmax [1] read?
Its Bmax is 3.22.

What about the Bmax [2] of the same binder?
The Bmax was 2.4.

What about the Bmax [3] of the same binder?
The Bmax was 3.46.

B2: W3152-r11.135.5-zAb17-m6-uIgG4L (antibody, V domains shown)
VH: QVQLQESGPGLVKPSETLSLTCTVSGFSLTENSVSWIRQPPGKGLEWIGAVWSSGSTDYNSALKSRVTISRDTSKNQFSLKLSSVTAADTAVYYCTRSTYSNDFYYYFDYWGQGTMVTVSS
VL: SYELTQPPSVSVSPGQTASITCSGSELPKRYAYWYQQKPGQSIVRVIYKDSERPSGISERFSGSSSGNTATLTISGTQAMDEADYYCSSTYGDRKLPIFGGGTKLTVLG
notes: also called W3152-r11.135.5-zAb17-m6-IgG4L
What does the source list for B2?
koff [4]: 0.00103 s⁻¹; EC50 (read off the curve) [5]: ~1 nM; IC50 (read off the curve) [6]: ~0.1 nM; binding result [7]: no binding (tested: concentration not shown); IC50 (read off the curve) [8]: ~0.6 nM; IC50 (read off the curve) [9]: ~2 nM; Kd [10]: 0.403 nM; koff [10]: 0.00101 s⁻¹; kon [10]: 2.52e+06 M⁻¹ s⁻¹; Kd [11]: 0.514 nM; koff [11]: 0.00145 s⁻¹; kon [11]: 2.81e+06 M⁻¹ s⁻¹; EC50 (read off the curve) [12]: ~0.2 nM; IC50 (read off the curve) [13]: ~2 nM; EC50 (read off the curve) [14]: ~2 nM
